The values that follow come from article PMC4914107 (Nucleic Acids Research, 2016).

This test deals with T1, RAD51 (purified) (UniProt Q06609 1-339).
T1 sequence (looked up): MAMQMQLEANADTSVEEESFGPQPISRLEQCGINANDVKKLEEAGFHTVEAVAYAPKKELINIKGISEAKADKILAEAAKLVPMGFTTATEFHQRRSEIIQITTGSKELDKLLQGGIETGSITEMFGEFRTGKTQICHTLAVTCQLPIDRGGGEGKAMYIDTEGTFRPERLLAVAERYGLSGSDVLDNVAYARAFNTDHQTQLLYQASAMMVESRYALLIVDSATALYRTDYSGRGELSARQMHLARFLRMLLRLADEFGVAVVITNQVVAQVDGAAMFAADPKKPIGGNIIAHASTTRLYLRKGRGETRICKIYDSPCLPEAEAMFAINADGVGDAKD
Kind of test: pull-down.

B1: 2XMBP-BRC4-DBD (domain or fragment, human)
chain: PVGTGNQLVTFQGQPERDEKIKEPTLLGFHTASGKKVKIAKESLDKVKNLFDEKEQGTSEITSFSHQWAKTLKYREACKDLELACETIEITAAPGGGSPYLSQFQQDKQQLVLGTKVSLVENIHVLGKEQASPKNVKMEIGKTETFSDVPVKTNIEVCSTYSKDSENYFETEAVEIAKAFMEDDELTDSKLPSHATHSLFTCPENEEMVLSNSRIGKRRGEPLILVGEPSIKRNLLNEFDRIIENQEKSLKASKSTPDGTIKDRRLFMHHVSLEPITCVPFRTTKERQEIQNPNFTAPGQEFLSKSHLYEHLTLEKSSSNLAVSGHPFYQVSATRNEKMRHLITTGRPTKVFVPPFKTKSHFHRVEQCVRNINLEENRQKQNIDGHGSDDSKNKINDNEIHQFNKNNSNQAVAVTFTKCEEEPLDLITSLQNARDIQDMRIKKKQRQRVFPQPGSLYLAKTSTLPRISLKAAVGGQVPSACSHKQLYTYGVSKHCIKINSKNAESFQFHTEDYFGKESLWTGKGIQLADGGWLIPSNDGKAGKEEFYRALCDTPGVDPKLISRIWVYNHYRWIIWKLAAMECAFPKEFANRCLSPERVLLQLKYRYDTEIDRSRRSAIKKIMERDDTAAKTLVLCVSDIISLSANISETSSNKTSSADTQKVAIIELTDGWYAVKAQLDPPLLAVLKNGRLTVGQKIILHGAELVGSPDACTPLEAPESLMLKISANSTRPARWYTKLGFFPDPRPFPLPLSSLFSDGGNVGCVDVIIQRAYPIQWMEKTSSGLYIFRNEREEEKEAAKYVEAQQKRLEALFTKIQEEFEEHEENTTKPYLPSRALTRQQVRALQDGAELYEAVKNAADPAYLEGYFSEEQLRALNNHRQMLNDKKQAQIQLEIRKAMESAEQKEQGLSRDVTTVWKLRIVSYSKKEKDSVILSIWRPSSDLYSLLTEGKRYRIYHLATSKSKSKSERANIQLAATKKTQYQQLPVSDEILFQIYQPREPLHFSKFLDPDFQPSCSEVDLIGFVVSVVKKTGLAPFVYLSDECYNLLAIKFWIDLNEDIIKPHMLIAASNLQWRPESKSGLLTLFAGDFSVFSASPKEGHFQETFNKMKNTVENIDILCNEAENKLMHILHANDPKWSTPTKDCTSGPYTAQIIPGTGNKLLMSSPNCEIYYQSPLSLCMAKRKSVSTPVSAQMTSKSCKGEKEIDDQKNCKKRRALDFLSRLPLPPPVSPICTFVSPAAQKAFQPPRSCGTKYETPIKKKELNSPQMTPFKKFNEISLLESNSIADEELALINTQALLSGSTGEKQFISVSESTRTAPTSSEDYLRLKRRCTTSLIKEQESSQASTEECEKNKQDTITTKKYI
With B1, the binding result was “binds”.
